Laboratory results published in the DeepSol protein solubility set.

Assay: soluble on expression in E. coli; label from the status in PepcDB or PDB records

| Sequence | soluble on expression in E. coli |
| --- | --- |
| MGSDKIHHHHHHMTIMSIGIIIASHGEFAAGIHQSGSMIFGEQEKVQVVTFMPNEGPDDLYAKFNNAVAAFDAEDEVLVLADLWSGSPFNQASRVMGENPERKFAIITGLNLPMLIQAYTERLMDAAAGVEKVAANIIKEAKDGIKALPEELNPVEEVASAAAAPVAQTAIPEGTVIGDGKLKINLARLDTRLLHGQVATAWTPDSKANRIIVASDNVAKDDLRKELIKQAAPGNVKANVVPIQKLIEISKDPRFGETHALILFETPQDALRAIEGGVPIKTLNVGSMAHSTGKTLVNTVLSMDKEDVATFEKMRDLGVEFDVRKVPNDSKKDLFDLINKANVK | not soluble |
| MMKKYLISLAKDQQRREQFFTQADTADFQVFDAVNTMQQEWDSLAVKYDITQFAQRYQRSVTKGEIGCTLSHLGVYQWIVADPQIGDNDYCLVCEDDALFNQDVQSSLTQLLSQNVHADIVLVGQSKIFGFDDAMLEIEYPTTFAPQMVAIGNSIYRYAYPYKNYYAGTVAYLIKKSTARKLVSITDLPFWLADDFILFEQQFGLDIMVVRPLMAIENPALCSNLETARASTQQALSKKLLKYPFKKWLAIQRNIGLKNDQCGNLEHHHHHH | not soluble |
| MSLQKNGYRIQFTSSRIRDLMYRTTFDPKKMDGDIILNLSLIDKKDLDDVLGIFKMVISSGLSVTPYVKVISEGESIGDMTIEKGKVGIGTVCSITIDGVLLKAGIPVNPKLGGVVQIRNGIPVRFTDVLTYVSTTVDPLEILMSQGITSVSEMLRTGSGKVLANLREAPMVARDEIESNLSDLLDAGFSGILEVGEPNTRVLDVPIERDHLGIVVIGGTNPMAVVQEYGIPIDTSAMSRLISFKEMSRIEDLVEGHHHHHH | soluble |
| MGSDKIHHHHHHMDAMPSTTAITVSQLSRLVGLPGVPVIIDVRIDEDFDADPRLLPASIRRDFKTVSTWAPDFAGKPVVVVCQKGLKLSQGVAAWLRHEGIPAESLEGGFEAWREADGLLVSTDKLPPRDEKGRTVWVTRSRPKVDRIACPWLIRRFVDPRAVFLFVEAAEVPAVADRFQAVPFDIDNVFWSHRGERCTFDTMIEEFGLESTALDRLAAIVRAADTARLDLVPQAAGFLAASLGLSRMFRDDLEQLEAGMLLYDAFFRWCRDATEETHNWPSAGKPS | not soluble |
| MDYRVLLYYKYVTIDDPETFAAEHLKFCKEHHLKGRILVSTEGINGTLSGTKEDTDKYIEHMHADNRFADLTFKIDEAESHAFKKMHVRPRREIVALDLEEDINPREITGKYYSPKEFKAALEDENTVILDARNDYEYDLGHFRGAIRPDITRFRDLPEWVRNNKEQLDGKNIVTYCTGGIRCEKFSGWLVKEGFENVGQLHGGIATYGKDPETKGQYWDGKMYVFDERISVDVNQIDKTVIGKEHFDGTPCERYINCANPECNKQILVSEENEEKYLGACSYDCAKHERNRYVARHHISNEEWQRRLNNFKDVPEHTHALEHHHHHH | soluble |
| MGSDKIHHHHHHMATIDLIVLGIVKQQPKSAYDIQKAVEYRNISRWVKISTPSIYKKVIQLEQKGYIESKTVKNGKMPEKAVYSLTELGETHFLDLMFDTSSKPINILLDFNAVIVNLNSLTPEKQKLCLNNIEENVQELKKTIEENISIKTEVPETAKAVLEQQLVLAQALETWINSLKDNTGN | not soluble |
| MGSDKIHHHHHHMTPAQLKDELIAYSKTIGIDKIGFASADPFLTLKERLQTQQALGYQSGFEEPDIDKRVYPEKILPKARSIISIALAYPSKMKNPPKSKKGERRGVFCRASWGKDYHDILRDRLKKLEDFLLERVPDMKVLSMVDTGALSDRAVAERAGIGWSGKNCGVITPEFGSYVYLGDLVTTIPFPPDIPLTDQCGTCNKCVDACPTGALIQGGQLDSQKCIAFLTQTKGFLPEKYRKKLGNRLYGCDTCQQVCPANKGKNFHFHEEMEPDPEIAKPKLIPLLTMSNREFKEKFGHVSGSWRGKKPIQRNAILALAHFKEEAALPILADLLRQDPRPVIRGTAGWALGKIGGPEVETWLKDALKREKDEDVRAEISRGLEILAYGDSGNGKETEDSIR | not soluble |
| MGSDKIHHHHHHMHVIKAKDDYTYRHTVGVSILSRLIGTWLKLDEVILKELTLGAVLHDIGKVEIPDAILNKPGALTKDEYRIIQDHTVKGYRIIQESGIYSDTVALMALEHHEREDGTGYPYQKTRNEIHLLSKILAVADVFHAMTSDRIYRKGMALYDVLLQMRQDRFGKLEPRITDFFVRRFMEQCIGSKARLNDGSRVEIVFIPYENPICPIVKQGTNYIDLRMSPLYIQELIPVTVKV | not soluble |
| QIKDHLIIVGFGFSGKTISKAAKAAGIPYLIIEMNPEIVQHEKAKGEKIQYGDATFGAVLEHAGIKNARVLVTGIADSSSTGKIVEKAKELNPNICVIVKVHDLQEMKRLNSMGADEIIPEEYETSVEIFVRLLEKYLVPRENIEK | not soluble |
| MSLSRVPRPHIHQRISVEDIMKGNRRTLAKAITLAESSNPADSTRLGNLLREIHQMATVRTVPRFALSGSPGSGKSSLLDTLGYYLCEKKNMHVGVLAVDPSSTITHGSILGDKTRMEKLGTHLNSYIRPSPSGGHLGGVTSRAWEALEIFEAARFDVVFVETVGVGQSETQCKDLTDMMILLVPPASGDELQGIKKGVVEVADMVVVTKNDGRRKPLVQQTMSAYARAVMYTEEKQGFEKPVIAVSAEEGTNVPELWEAMLKMWNARLESGQIAHLRRAQSTKHFYNYFEMELLAKARRMTNLEMQNMAHRVWEHEMTPREAGDIMVLRTLREHLAADAAVQHDAGKRAEGHHHHHH | soluble |
| MGSDKIHHHHHHMKLITFVCAAFLCLPSLAQEKFPDGTPVSDWFKDSKIVDINTLGKKYILTDYGVINDSTLLQTEKIQSAIDAAAQNGGGVIVIPKGTYLSGALFFKPKTHLHLEEGAVLKGSDDISNFPIIDTRMEGQSLKYFAALVNADKVDGFTLSGKGTIDGNGLRYWKSFWLRRKVNPQCTNMDELRPRLVHISHSNNVQLSGVRLINSPFWTTHLYKCNHIKLLNLYIFSPEKPVKAPSTDAIDIDVCSNVLVKNCYMSVNDDAIALKGGKGPWADQDPNNGGNFNIIIEDCTYGFCHGALTCGSESIHNRNIILRRIHITNANRLLWLKMRPDTPQQYEYILVEDITGDADHFLYIKPWTQFFDLKDRKDIPVSYSNHVTMRNIDFKCDNFFSVEKSDQYQLTNFTFENLNIKAKNGECDKEMIDNFIWKKVSINNIK | not soluble |
| SKNEKEQLSKAKASVSSLNKVIQTKLTVGNLGLGLVVIQNGPYLQISHLINKGAAASDGILQPGDVLISVGHANVLGYTLREFLKLLQNITIGTVLQIKAYRGFLEIPQEWQD | soluble |
| MTTHLSNVAPDLQNYLNAIGEPEHPVLTRLREKTGHHRMGKMAIAREQAAVLVWLAKLIRAEKYLEIGVFTGYSSTALALALPEHGRITACDINVTFTDTARQVWNEAGVAHKISLHLQPALLTLDDLIAQGEAGSYDLALIDADKPPTPQYFERCLKLVRQGGIIAIDNILLNGRVMREAASDAPPSVGILKDFNQNLPNDPRIVPITLPVGDGLTLLLKK | not soluble |
| MHHHHHHSSGVDLGTENLYFQSMKQYEHVTRDLNPEDFWEIIGELGDGAFGKVYKAQNKETSVLAAAKVIDTKSEEELEDYMVEIDILASCDHPNIVKLLDAFYYENNLWILIEFCAGGAVDAVMLELERPLTESQIQVVCKQTLDALNYLHDNKIIHRDLKAGNILFTLDGDIKLADFGVSAKNTRTIQRRDSFIGTPYWMAPEVVMCETSKDRPYDYKADVWSLGITLIEMAEIEPPHHELNPMRVLLKIAKSEPPTLAQPSRWSSNFKDFLKKCLEKNVDARWTTSQLLQHPFVTVDSNKPIRELIAEAKAEVTEEVEDGKE | soluble |
| MGSDKIHHHHHHMFKLVSEFEPTGDQPQAIEKLVEGLNRGMRFQTLLGVTGSGKTFTMANVIARVNRPALVISPNKTLAAQLYQEFKTFFPENRVEFFISYYDYYQPEAYIPTKDLYIEKNADINDVIVRMRMSTLKSVRTRRDVVVVASVSCIYATGDPNDFDRMNINLAVGDRIDVLELAERLARIGYQRTEDVSLSGCFRLKGDTVEIYPTYQDEGIRIEFFGDEVDSITLIDRFNRTTLEHLDKIIIYPAVEFITTEEKLKRAVESIREELNERLSELKKQGKILEYERLKQRTLNDIELLETMGYCPGIENYSRHFDGRKPGEPPYTLLDYFDKDFIVFIDESHITVPQLRAMYNGDRSRKKNLVEYGFRLPSAYDNRPLTFEEFLKKTGQIIFVSATPGDFELSISEQVVEQIIRPTGLVDPEVEVRPTAGQVDDLVNEIVKVKERGERALVTVLTKKTAELLSEHLTELGIRSLYLHSELDAIERVEVLKKLRRGDVDVVVGVNLLREGLDLPEVSLVAIMDADVEGFLRSETTLIQIIGRTARNVNGKVIMYADRITNAMKRAIEETNRRRRIQLEYNRKHGITPRSVIKPLEIEVFEQFMVKEEPERYGDTVKNIFEMKKTLSPEEYMAVLEEEMYRAASELRYEDAAALRDELFRIREEIKKKKGL | not soluble |
| LVTISSTSAASLPTMPPSGYDQVRNGVPRGQVVNISYFSTATNSTRPARVYLPPGYSKDKKYSVLYLLHGIGGSENDWFEGGGRANVIADNLIAEGKIKPLIIVTPNTNAAGPGIADGYENFTKDLLNSLIPYIESNYSVYTDREHRAIAGLSMGGGQSFNIGLTNLDKFAYIGPISAAPNTYPNERLFPDGGKAAREKLKLLFIACGTNDSLIGFGQRVHEYCVANNINHVYWLIQGGGHDFNVWKPGLWNFLQMADEAGLTRDGNT | soluble |
| MASNQQDVVKELNQQVANWTVAYTKLHNFHWYVKGPNFFSLHVKFEELYNEASQYVDELAERILAVGGNPVGTLTECLEQSIVKEAAKGYSAEQMVEELSQDFTNISKQLENAIEIAGNAGDDVSEDMFIGMQTSVDKHNWMFKSYLSLEHHHHHH | soluble |
| MLKIQAYFNETADLPCQFANSQNQSLSELVVFWQDQENLVLNEVYLGKEKFDSVHSKYMGRTSFDSDSWTLRLHNLQIKDKGLYQCIIHHKKPTGMIRIHQMNSELSVLA | soluble |
| MDIPQDSYDLVVVGGGTSGVFAAISAARRGLRVALVEASGMLGGTLTQVTLGGICGAWTGTAHTQVVHGLFDEFVHAMRKAQACDGLYSYGHVTALPYEPVKVRYLLDQLLPPNVTTFFHSRLFAVDMEGERIARVHLAGVEGPFSLAARAYVDATGNASLAGLCATPLRRGENGTVQAASSMFRVIGADVDPRVRDVRTEIRLAIEKHNASGQAEAFKRSAVAVYVHPDQRLLHFNATRVYFESTADDALAAALDMSRVETEARKEAFRLVELLKREVDGFANIEIVDLGSSVGVRDSRNIVNDHPLTEAMVRDGDKPANSVAYSAWPIEFHGSNTQTHWEPLEGDRYYGIPYESCLPQGIQNALVIGRAISSTPLAQASCRVTAPCIQMGESAGIAAHELVASSSRTAFSELASMKFILEHHHHHH | not soluble |
| MGSDKIHHHHHHMAYRDQSLGELAIAIPRATKLFRELNLDFCCGGKQTLSRAAGKKDLNIDELEAQLEKLAAQPSDARDWREAPLADIIAYIIPRFHDRHREQLPELILMAKKVERVHHDKADCPHGLANQLTAIYNELSQHMMKEERILFPMIGQGMGANAAAPISVMEHEHDDAGRDVEVVKELTNGVVPPEGACNTWRALYSGINEFITDLMEHIHLENNLLFPRALRGE | not soluble |
| MIITTTPTVENRQIIEYKGLVFGEVVAGANIIRDFFASITDMIGGRSGVYEDKLNVARQEALVELQKQARNIGANAVIGVSIQYQSMGKKDMFIIVATGTAVVIGLEHHHHHH | not soluble |
| MGSDKIHHHHHHMIVGIDVGGTNTDVAVLEGNVFQIKSFRTSEVIQNLSDFIEKNFGDAEAVGIGVAVWFVDGKPVKAPNLPAIPKMELDVPFIVDNDANCFAYFAAKTLNFRHLLAVTVGTGIGGGIVADGKIYRGRGAAGEIGHTFVGGRKRCRCGGEGHLEAYFGGWAMENVKELIDTGEIYSTAEFALFCRSLANAVMLLNPEAIALGGRIGGRLDERPLAEKVNRYLPEEIDVVVRVVKDDYAVAKGAALLALDTISQNLP | not soluble |
